The nature of this series: yeast display, Sf9 membrane polyspecificity reagent, FACS + sequencing; frameworks hold sequencing errors. The method, boiled down: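 Synthetic nanobody libraries on Saccharomyces cerevisiae BJ5465 were galactose-induced for 36–48 hours, stained 1 hour at 4 °C with 10% biotinylated, detergent-solubilized Sf9 membrane reagent and enriched on streptavidin microbeads. FACS then separated cells into low and high (top ~1%) gates by anti-HA (expression) and streptavidin (reagent binding) fluorescence. Genes were colony-PCR amplified, MiSeq 2 × 250 sequenced and CDR-length filtered. A clone's polyreactivity label is that of its gate of origin.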
For the sequence “QVQRVESGGGLVQAGGSLRLSCPASGFTFSRNVMGWYRQAPGKERELVADITLSGASTYYADSVKGRFTISRDNAKNTVYLQMNSLKPEDTAVYYCAADPYHWRWGWRHDYWGQGTQVTVSS”, the “polyreactivity (PSR sort gate)” value is “low polyreactivity”.
Turning to “QVQRVESGGGLVQAGGSLRLTCAASGFTFVYYPMGWYRQAPGKVREWVAVISYSGTNTRYADSVKRRFTISRDNAKITVYLQMNSLKPEDTAVYYCAAEIYYVSWYDYWGQGTQVTVSS”, the “polyreactivity (PSR sort gate)” value is “high polyreactivity”.
For the sequence “QVQRVESGGGLVQAGGSLRLTCAASGRTFPGYAMGCYRQAPGKERELVAGISYRGGSTYYADSVKGRFTISRDNANNTVYLQMNSLKPEDSAVYYCALDYSRHKGDYWGQGTQVTVSS”, the “polyreactivity (PSR sort gate)” value is listed as “low polyreactivity”.
Take “QVQRVESGGGLVQARGSLRLSCAPSGSIFPYYAMGCYRPAPGKERELVAGISRRGGTTYYADSVKGRLTISRDNAKNTVYIQMHSLKPEDTAVYYCAARYGPYVDRYGYCGQGTQVTVSS”: the “polyreactivity (PSR sort gate)” value was “high polyreactivity”.
With “QVQRVESGLGLVQAGCSLRLTCAASGRIFDGYAMGWYRPARGKERELVATISSGGFTYYADSVKGSFTISRDNAKNTFYLQMNILKPEDTAVYYCAATPICSGGWGDYWGQGTQVTVSS” the entry was “low polyreactivity”; with “QVQRVESWGGLVQAGCRLRLSCAASGIFRRYAMGWYRQAPGKERELVAAISSSGGSTDYADSVKGRFTISRDNAKNTVYLLMNSLKPEDTAVYYCNAYDLHGWWSYAYDYWGQGTQVTVSS”, “high polyreactivity”; with “QVQRVETGGGLVQAGGSLRLSSAASVLTFKWYAMGWYRQSPGKERELVAAISRDGSTYYGDSVKVRFTISRDNAKNTVYLQMNSLKPEDTAVYYCAADIWPSSLLADEYDYWGQGTQVTVSS”, “high polyreactivity”.
In the case of “QVQSVESAGVLVQAGGSLRLSCAASGFTFTWYAMGWYRKAPGKERELVATISRSGGRTYYADSVKGRFTISRDNAKNTVYLQMNSLKPEDTAVYYCAADTRNSPRYDYWGQGTQVTVSS”, the “polyreactivity (PSR sort gate)” value was “high polyreactivity”.
As for “QVQSVESCGGLVQAGRSLRLSCAPSGSIFADYAMGWYSQAPGKERELVAVISRRGGTTYYADSVKGRFTISRDNAKNSVYLQMNSLKPEDTAVYYCAARRSFNEYDYWGKGTQVTVSS”, the “polyreactivity (PSR sort gate)” value is “high polyreactivity”.
Consider “QVQVEESGGGFDQAGGSLRLSCAASGSIFYYNAMGWYRQAPGKERELVAAISGRTGSTYYADSVKGRFTISRDNAKNTVYLQMNSLKPEDTAVYYCNALFLGYYYYWGQGTQVTVSS”, for which the “polyreactivity (PSR sort gate)” value is given as “high polyreactivity”.
With “QVQVVDSGGGLVQAGGSLRLSCAASGRTFIGNAMGWYRQAPGKERELVATITTSAGTTYYADSVKGRITISRDNAKITVYVQMLSLKPEDTAVYYCAADASQSEGDYWGQGTQVTVAS” the entry was “high polyreactivity”.
Under “QVQVVESGAGLVQAGGILRLRCASSGFILYPNAMGWYRQAPGKERELVAAITESDGITYYADSVKGRFTISRDNAKNTVYLQMNSLKPEDTAVYYCNTGFSYTYDYWGQGTQVTVSS” stands “low polyreactivity”; under “QVQVVESGGCLVQAGGSLRLSCAASGRMFRRYAMGWYRQAPGKERELVAAISSGGSTYYADSVKGRFTISRDNAKNTVYLQMNSLKPEDTAVYYCNAKVGAYLNYGYWGQGTQVTVSS”, “low polyreactivity”.
With “QVQVVESGGGIVHAGGSLRLSCAASGFIFLVNGMVWYRQAPGKERELVAAISFDGGSTYADSVKGRFTISRDNAKNTVYLLMTSLKPEDTAVFYCATDVRGVDGEDYSWGQGTQVTVSS” the entry was “low polyreactivity”; with “QVQVVESGGGLDQAGGSLRLSCAASGRIFFYYGMGWYRQAPGTERELVASISRGGSTTYADSVKGRFTISRDNAMKTVYLQMNSLKPEDSAVYYCARRYTQIYSSNYGYWGQGTEVTVSS”, “high polyreactivity”.
In the case of “QVQVVESGGGLFQAGGSLRLSSAASGSIFARNALGWYRQAPGKERDLVAGITRSTGDTYYADSVKGRFTISRDNAKYTVSFQMNSLKQEDTAVYYCARDGRRTPYKYEYWGQGTQVTVSS”, the “polyreactivity (PSR sort gate)” value is given as “low polyreactivity”.
Regarding “QVQVVESGGGLVQAGASLRLSCAASGRTCLHKAMGWYRQAPGKERELVAAIDSRGTTHYADSVKGRFTISRDNAKNTVYLQMNSLKPEDTAVYYCAARPTRGHWWYAYWGQGTQVTVSS”, the “polyreactivity (PSR sort gate)” value is “low polyreactivity”.
Under “QVQVVESGGGLVQAGGSLGLSCAASGGTFGYYAMGWYRQAPGKERELVAAINRSDGGTYYADSVKGRFTISRDKAKNTVYLQMTSLKPEDTAVYYCNADDFYYDEPYDYWGQGTQVTVSS” stands “low polyreactivity”.
As to “QVQVVESGGGLVQAGGSLRLRCAASGRSFVRNAMGWYRQAPGKEREFVAAINSGGSTYYADSVKGRFTISRDNAKNTVYLQMNSLKPEDTAVYYCAAELHIYYSWYWYDYWGQGTQVTVSS”, the “polyreactivity (PSR sort gate)” value was “high polyreactivity”.
With “QVQVVESGGGLVQAGGSLRLSCAASGFISSYYAMGWYRQAPGKERELVAAITSGGRTYYADSVKGRFTISRDNAKNTVYLQMNSLKPEDTAVYYCAKYSRTKAFDYWGQGTQVTVSS”, the “polyreactivity (PSR sort gate)” value is given as “high polyreactivity”.
Under “QVQVVESGGGLVQAGGSLRLSCAASGRIFAKYAMGWYIQAPGKERELVAAIDLSDGSTSYADSVKGRFTISRDNAKNTVYLQMNSLKPEDTAVYYCAKTWANVYAGAHDYWGQGTQVTVSS” stands “low polyreactivity”; under “QVQVVESGGGLVQAGGSLRLSCAASGRIFTGYAMGWYSQAPGTERELVAAISRGGSTNYADSVKGRFTISRDNAKNTVYLQMNSLKPEDTAVYYCAAGVHWDRGDYWGQGTQVTVSS”, “low polyreactivity”.
With “QVQVVESGGGLVQAGGSLRLSCAASGRTFGVYAMGWSRQAPGKERELVAVINRSGGSTYYADSVKGRFTISRDNAKYTVYLQMNSLNPEDTAVYSCDKASAYSAYDDHDDYWGHGTQVTVSS” the entry was “high polyreactivity”; with “QVQVVESGGGLVQAGGSLRLSCAASGSIFPFYVMGWYRQAPGKEREFVATISSRGGSTYYADSVKGRFTISRDNAKNTVYLQMNSLKPEDTAVYYCAAGWYRNDWGQRLHTYYYWGQGTQVTVSS”, “high polyreactivity”.
With “QVQVVESGGGLVQAGGSLRLSCAASGSTFVRNAMGWYRQAPGKDRELVAAITTSGARTYYADSVKGRFTISRDNAKHTVYLQMNSLKPEDTAVYYCAAEYKGRTYRFDYWGQGTQVTVSS” the entry was “low polyreactivity”; with “QVQVVESGGGLVQAGGSLRLSCAASGYIFDYYAMGWYRQAPGKERELVAAISSSGGTTYYADSVKGRFTISRDNAKNTVYLQMNSLKPEDTAVYYCAADAVLPRSDYWGQGTQVTVSS”, “high polyreactivity”; with “QVQVVQSGGGLVQAGGSLSLSCAASGNTFYGYAMGWYRQAPGNESEFVASITLSGDSTYYADSVKGRFTISRDNAQNTVYLQMNSLKPEDTAVYYCAGVYTYPLGYYHYTYDYWGQGTQVTVSS”, “low polyreactivity”.
“QVRLVESGGGLDQAGGSLPLSCAASGRTFEPNAMGWYRQAPGKERELVAAITSAGITHYADSVKGRFTISRDNAKNTVYLQMNSLKPEDTAVYYCRLQTGIIDRLRRYNYWGQGTQVTVSS”: the “polyreactivity (PSR sort gate)” value is reported as “high polyreactivity”.
Take “QVRLVESGGGLVKAGGSLRLSSAASGSTFWSYAMGCYRQATGKERELVAAISWSGDSTYYADSVKGRFTISRDNAKNTVYLQMNSLKPEDTAVYYCAADYVGGSYEYEYWGQGTQVTVSS”: the “polyreactivity (PSR sort gate)” value is reported as “low polyreactivity”.
As for “QVRLVESGGGLVQAGGSLRLSCAASAFTFDSYAMGWNRQAPGKERELVAAITWSGGSTYYADSVKGRFTISRDIAKNTVYFQMNSLKPEDTAVYYCNVDRYDGDYCGQGTQVTVSS”, the “polyreactivity (PSR sort gate)” value is “high polyreactivity”.
Take “QVRLVESGGGLVQAGGSLRLSCAASGFIFWRNAMGWYRQAPGKERELVAAITSGGSTNYADSVKGRFTISRDNAKNTVYLQMNSLKPVDTAVYYCAARQWFSHRRWGGSRYDYWGQGTQVTVSS”: the “polyreactivity (PSR sort gate)” value is reported as “low polyreactivity”.
Consider “QVRLVESGGGLVQAGRSLRLSCAASGRIFWNYAMGWYRQAPGKERELVATIDKSGGSTRYADSVKGRFTISRDTAKNTVYLQMNSLKPEDTAVYYCAARGPASRGFRGARSGLTFDYWGQGTQVTVSS”, for which the “polyreactivity (PSR sort gate)” value is recorded as “low polyreactivity”.
Take “QYQLVESGGGLVQAGGSLRLSCAASGFIFSTNAMGWYRQAPGKERELVAAISRRGGNTYYADSLKGRFTISRDNAKNTVYLQMNSLKPEDTAVYYCAKRGVYGYRYYYWGQGTQVTVSS”: the “polyreactivity (PSR sort gate)” value is given as “high polyreactivity”.
With “QYQLVESGGGLVQAGRTLRLSWAASGRIFVRYVMGCYRQAPVKERELVAAISSSGGSTYYADSVKGRFTISRDNAKNWVYLQIYSLKPEDTAVYYCATDFMDKYILPYDYWGQGTQVTVSS” the entry was “low polyreactivity”.

The values are drawn from the nanobody polyreactivity screen of Harvey et al. (2022).
